# Measurements as given in article PMC9969229.
# What was measured:
# [1] = target: glycosylated prostate specific antigen (human) (UniProt P07288); experiment: BLI; […] (0.4 μg mL^-1) […]
# [2] = target: neuraminidase-treated glycosylated human PSA (human) (UniProt P07288); experiment: BLI; […] (15 μg mL^-1) […], in buffer
substance,measurement,setting,value
Sambucus nigra lectin (natural protein),maximum signal to noise (PSA against no PSA),[1],12.8
same,signal to noise (PSA against no PSA),[1],1.5
same,reduction in signal against fresh glycosylated PSA,[2],50%
